Reference: PMC3393791

Molecular target: T1, Full-length human TIP47/perilipin-3 (human), O60664
T1 chain: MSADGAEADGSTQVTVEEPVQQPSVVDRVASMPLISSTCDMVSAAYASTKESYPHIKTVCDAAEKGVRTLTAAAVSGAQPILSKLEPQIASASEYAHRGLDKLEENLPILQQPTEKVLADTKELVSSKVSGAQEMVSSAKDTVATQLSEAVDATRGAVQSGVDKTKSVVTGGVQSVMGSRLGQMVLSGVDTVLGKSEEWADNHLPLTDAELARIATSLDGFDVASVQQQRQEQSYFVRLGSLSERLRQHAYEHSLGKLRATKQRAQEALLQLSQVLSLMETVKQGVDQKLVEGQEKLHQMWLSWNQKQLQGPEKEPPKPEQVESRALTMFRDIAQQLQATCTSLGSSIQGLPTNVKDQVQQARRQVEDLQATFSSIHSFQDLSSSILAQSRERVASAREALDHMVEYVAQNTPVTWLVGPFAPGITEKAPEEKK
Assay: SEC-MALS
Settings: remark: other sources report otherwise

stoichiometry N: 2
B1: Full-length human TIP47/perilipin-3, O60664 1-434 (natural protein)
chain: T1 chain
